From a protein production outcome set (Wang et al. 2014)

Experiment: label from the status in PepcDB records

**Q.** For “MESNLTYTEALLKLEEIVEQIEDDSIMLDTLTEKVMQANELIKYCETKLRTIEGDVRDVLQ”, which protein production is on record?
**A.** failed

**Q.** With “MESVRIEQMLSLPAEVSSDNLESAERGASAAQVDMGPHPKVAAEGPAPLPTREPEQEQSPGTSTPESKVLLTQADALASRGRIREALEVYRQLSERQQLVAEQLEQLVRCLAEKVPQGEALAPAPPDEGSTASGTVAAEETGAAAAAAATEVWDGFKCRKCHGFLSDPVSLSCGHTFCKLCLERGRAADRRCALCGVKLSALMVATGRARGARRAGQQPPPPLRVNVVLSGLLGKLFPGPARASQLRHEGNRLYRERQVEAALLKYNEAVKLAPNDHLLYSNRSQIYFTLESHENALHDAEIACKLRPMGFKDNLELPHCSSQEEAAARGDGSSLMDPAKVKGDGQQHHMKDQEEEEEKWDATSPKAASSKTGKCQEKKRKHCQIESQEETGMPNKASKQDPPTDQGDKPALSLPLASFDASDLECALCMRLFYEPVTTPCGHTFCLKCLERCLDHNAKCPLCKDGLSQCLASRKYSKNVIMEELIAKFLPEELKERRKLYEEEMEELSNLNKNVPIFVCTMAYPTVPCPLHIFEPCYRLMIRRCIETGTRQFGMCLGDPVKGFAEYGCILEIRNVQFFADGRSVVDSIGKRRFRVLHQSQRDGYNTADIEYIEDQKVQGEDCAELMGLHNCVYQQASLWFHSLKLSLKNRILNHFGPMPEKDADPQMNPNGPAWCWWMLAVLPLESRAQLPFLAMRSLKDRLNGIRRVLAFISRNQN” as the sequence, how does the protein production read?
**A.** failed

**Q.** Which protein production does the source give for “MESYSPAQTCLELVPVLADDSISAASTSDVQDRLSALESRVQQQEDEITVLKAALADVLRRLAISEDHVASVKKSMPSKGQPSLREAISMSCITNGSGINRKQNHTSSISIARKETLSSAAKSGTEKKKEKPQGQREKKEESHSNDQSPQIRASPSPQPSSQPLQINRQTPESKSSAPTKSIKRPPTAEKSHNSWENSDDSRNKLLKTVSTSKLISKVIKNTDKHKDVIINQAKMSTREKSSQEGEYIKMFMRGRPITMFIPSDVDNYDDIRTELPPEKLKLEWVYGYRGKDCRANVYLLPTGEIVYFIASVVVLFNYEERTQRHYLGHTDCVKCLAVHPDKIRMATGQIAGVDKDGRPLQPHVRVWDSVSLSTLHVIGLGTFERGVGCLDFSKADSGVHLCVIDDSNEHMLTVWDWQRKSKVAEIKTTNEVVLAVEFHPTDANTIITCGKSHIFFWTWSGNSLTRKQGIFGKYEKPKFVQCLAFLGNGDVLTGDSGGVMLIWSKTTIEPPPGKGPKGVYQISRQIKAHDGSVFTLCQMRNGMLLTGGGKDRKIILWDHDLNLEREIEVPDQYGTIRAVAEGKAEQFLVGTSRNFILRGTFNDGFQIEVQGHTDELWGLATHPFKDLLLTCAQDRQVCMWNSVEHRLEWTRLVDEPGHCADFHPSGTVVAIGTHSGRWFVLDAETRDLVSIHTDGNEQLSVMRYSVDGTLLAVGSHDNFIYLYAVSENGRKYSRYGKCTGHSSYITHLDWSPDNKHIMSNSGDYEILYWDIENGCKLIRNRSDCKDIDWTTYTCVLGFQVFGVWPEGSDGTDINALVRSHHRRVIAVADDFCKVHLFQYPCSKPKAPSHKYSAHSSHVTNVSFTHNDSHLISTGGKDMSIIQWKLVEKLPLPQNEVIADTSSTKAPASATENARLCNAPQPPSQPLPGTAEEESRVSSSPTLVENSLEQSEWGSEDLGVVIDEEPASERGEKQGAAEASEEEQGAAPLC” here?
**A.** failed

**Q.** For “METESIKLDVQVTTTSQDPSLGLLSTVIITLDRDLEEYDENVDSIKSLGSYPDSSTPDESLIILKLPTSEPDYIYLTLRSKLKDHLHDHVLSEEIADQIFEAQLGTQSIDQFPFQQPLFMLVSVKLTQKLYTYAPCNASPLATDLTKRAK”, which protein production is on record?
**A.** failed

**Q.** For “METGTHVRDVIFPGGNAAPDAGSVVAAIHQLPTLRLLSLDAHGRVLDWINWQDAACLYARDAVSWTLGEPCMQIHGGISRLTGERSTLELHPIIAARGHARSRALDPTPTLSNTALFARDAQLCMYCGQHFSRPHLTRDHVMPVSKGGRDSWENVVTACFQCNSRKANRTPQQAHMPLLAVPYRPSWIEHLILSNRNILSDQMAFLRAQLPKRSKLSLQAGAPRVADPG”, which protein production is on record?
**A.** failed

**Q.** Which protein production does the source give for “METKQDNLIYVWDAYCGWCYGFSESIKGFYKNHTEVPLTVLCGGLFLDNLPMKNFSYIEEGNKRINQLTGAEFGPSYQKLVEEGTFKMNSKDAAIGFSALRSLAPDRLLEFTSAMQKAFYYEGQSLSDPETYRKIAIEHGLDPEQVLERLNAQETIIDVQNDFNKVRQLGVNSYPSLLLQKDNQIIPIGGGVMTPDKIEARFKNLY” here?
**A.** failed

**Q.** With “METLSDVFATFSQRGDTTAFVHRTGVRRYVFTYLDLHALSLRMNRWLADQGVGEGDRVVLWGPNSPWWAVAFWGIVTRGAVAVPVDFMSGAERAEIIAGLTDAKLVIQSRDKLDRLTGRPSVLLEELGFLLEAVEPLATTHRPAPDDMAELIYTSGTTGNPKGVILTHRNLVANILQVNRHIPVVTPDFSFLSLLPLSHMFEQMGGFFTPLYRGAAIVYIRTLKPSAIMEALGEEDIYAIIAVPRLLQLLKGSVERELEAKGLGSIFRWLLKVGERMSRGGRSVLFRPIQRKFGRNFALFVSGGAPLDPEVFRFWNGLGFRVVEGYGLTECSPVLTANTMERQVMGSVGTPLDGVELRLEEGEILARGDNIFPGYFRNEEATRGAFVDGWFRTGDLGELDPDGWLRIKGRSKELIVTGAGVNVYPDEIEAILNRTQGVREGCVIGLDRGKGEEVHGVLILDGSGRPTEEIVNEVNAKFDELHRITSFSVWPEAEFPKTTTLKIRKFQVKERIEQGGGALGDGRGADRLTALVATITGSPLEQVTEGALLVNDLGLTSIARLELVNALEMEFRLDLEDSVIGPQTRVADLREIVSRREKVHIREHFRIWAMGGVALAVRRLLDTVLHGPLLRAFVTLKSLGIENLEAADGPVMFVSNHLSYLDQPAIMCVLPDAWRYNTATAAWEEFFFRNFKNLPQRLWKRFTYEYASVAFTVFPLPQSRGFRGALHFMGTLADQGMNILLFPEGERSRDGRLLPFQQGLGVMIRELGVPVVPVRIRGLEKVLPRGASWPQKGEVSITFGKPIHFRGESPTEIVDRARRAVEDLLEHHHHHH” as the sequence, how does the protein production read?
**A.** failed

**Q.** Which protein production does the source give for “METNKNFAVIGLGEFGSRICEVLVDGGASVVAFDHDIQAVERIKKIVPAAMLVETTNEEALLKAPLDDVEVAIVAIGNNIEASVLTTTLLKQRDIPYVLARAVSPLHATVLRRVGANEVLNIEISAATRIARRLISPDVMDSIAVTKDFSIREIIVPKFFIGKTVGSVALKEKFNITLIALVRMALDIDSVGNPVKQEVMHYPEDDFELREGDKLFLIGSNIKLEEFRNM” here?
**A.** failed

**Q.** For “METPYHQRWLAFPDAVSSYRPLESRLAGTSRATADNRTPCTGRLGTPRVFLMATDDVSKAYSSPTFDAEALLGTVISAEDPDRVLIEPWATGVDGVILDVGSGTGRWTGHLASLGHQIEGLEPATRLVELARQTHPSVTFHHGTITDLSDSPKRWAGLLAWYSLIHMGPGELPDALVALRMAVEDGGGLLMSFFSGPSLEPMYHPVATAYRWPLPELAQALETAGFQVTSSHWDPRFPHAYLTAEASLEHHHHHH”, which protein production is on record?
**A.** not failed

**Q.** For “METRANYVIVGIFTLVAILAAFGFVYWTAAIGDRGETTLLRVRIPGSASGLGRGSFVLFNGVKVGDVKRVYIDVDNPTVAIADTEIDRLTPITKSTQADIGLAGLTGQANIELKGADPKEVKLLDQAEKEGKVAEIVANPSAVTNLLQTAQNIFSRADKVLSELEGFTRDVRGPLTQTVQNVQTFSDALAKNSDGIDKFLSSVSALSEELKGVSGKLDGTLKAAEGLLNAVDRDKIKSIVANVDTVTANLKQTSQQLDGVIKNVDTAVGSVNDFAKQTQGTLAKVDGVLDGVDPAQVRAALANIQKASENANKAAADIAVVTEKFANRADDIDQTIKDAKQLAQRLNDASVRVDGILARVDTLLGSGQADGLMADARDTLKSFKQVADTLNARLGVITDNLARFSGQGLSNVEALVQDSRRSITRIEEAVTDLSRNPQRILSGGDGEVRQFDGRARR”, which protein production is on record?
**A.** failed

**Q.** For “METRYNLKSPAVKRLMKEAAELKDPTDHYHAQPLEDNLFEWHFTVRGPPDSDFDGGVYHGRIVLPPEYPMKPPSIILLTANGRFEVGKKICLSISGHHPETWQPSWSIRTALLAIIGFMPTKGEGAIGSLDYTPEERRALAKKSQDFCCEGCGSAMKDVLLPLKSGSDSSQADQEAKELARQISFKAEVNSSGKTISESDLNHSFSLTDLQDDIPTTFQGATASTSYGLQNSSAASFHQPTQPVAKNTSMSPRQRRAQQQSQRRLSTSPDVIQGHQPRDNHTDHGGSAVLIVILTLALAALIFRRIYLANEYIFDFEL”, which protein production is on record?
**A.** failed
